# Publication PMC11832219 (Molecular cell, 2024)
# T1: MED17 (human (endogenous in 293-F), UniProt Q9NVC6 1-651)
# T1 sequence (looked up): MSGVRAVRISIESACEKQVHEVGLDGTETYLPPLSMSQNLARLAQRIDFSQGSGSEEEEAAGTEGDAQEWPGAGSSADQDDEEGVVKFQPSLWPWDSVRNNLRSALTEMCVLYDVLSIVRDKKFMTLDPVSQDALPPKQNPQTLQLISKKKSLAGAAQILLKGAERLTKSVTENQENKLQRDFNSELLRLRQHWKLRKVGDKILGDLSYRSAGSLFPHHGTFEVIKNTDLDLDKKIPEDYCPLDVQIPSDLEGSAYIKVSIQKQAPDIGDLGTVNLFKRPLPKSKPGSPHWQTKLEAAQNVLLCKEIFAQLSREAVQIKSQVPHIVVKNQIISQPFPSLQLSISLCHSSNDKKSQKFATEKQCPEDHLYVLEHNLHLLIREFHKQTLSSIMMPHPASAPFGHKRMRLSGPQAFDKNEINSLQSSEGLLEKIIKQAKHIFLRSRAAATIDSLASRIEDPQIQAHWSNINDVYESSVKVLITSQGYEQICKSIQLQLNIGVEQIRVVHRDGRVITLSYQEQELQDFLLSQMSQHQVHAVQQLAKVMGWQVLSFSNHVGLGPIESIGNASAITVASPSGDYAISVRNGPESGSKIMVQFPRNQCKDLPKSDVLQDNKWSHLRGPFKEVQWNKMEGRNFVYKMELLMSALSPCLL
# B1: MED31 (natural protein, human (endogenous in 293-F), UniProt Q9Y3C7 1-131, looked up)
# chain: MAAAVAMETDDAGNRLRFQLELEFVQCLANPNYLNFLAQRGYFKDKAFVNYLKYLLYWKDPEYAKYLKYPQCLHMLELLQYEHFRKELVNAQCAKFIDEQQILHWQHYSRKRMRLQQALAEQQQQNNTSGK
# B2: MED19 (natural protein, human (endogenous in 293-F), UniProt A0JLT2 1-244, looked up)
# chain: MENFTALFGAQADPPPPPTALGFGPGKPPPPPPPPAGGGPGTAPPPTAATAPPGADKSGAGCGPFYLMRELPGSTELTGSTNLITHYNLEQAYNKFCGKKVKEKLSNFLPDLPGMIDLPGSHDNSSLRSLIEKPPILSSSFNPITGTMLAGFRLHTGPLPEQCRLMHIQPPKKKNKHKHKQSRTQDPVPPETPSDSDHKKKKKKKEEDPDRKRKKKEKKKKKNRHSPDHPGMGSSQASSSSSLR
# B3: MED10 (natural protein, human (endogenous in 293-F), UniProt Q9BTT4 1-135, looked up)
# chain: MAEKFDHLEEHLEKFVENIRQLGIIVSDFQPSSQAGLNQKLNFIVTGLQDIDKCRQQLHDITVPLEVFEYIDQGRNPQLYTKECLERALAKNEQVKGKIDTMKKFKSLLIQELSKVFPEDMAKYRSIRGEDHPPS
# B4: CCNC-6xHis (recombinant CKM subunit) (natural protein, human)
# chain: MAGNFWQSSHYLQWILDKQDLLKERQKDLKFLSEEEYWKLQIFFTNVIQALGEHLKLRQQVIATATVYFKRFYARYSLKSIDPVLMAPTCVFLASKVEEFGVVSNTRLIAAATSVLKTRFSYAFPKEFPYRMNHILECEFYLLELMDCCLIVYHPYRPLLQYVQDMGQEDMLLPLAWRIVNDTYRTDLCLLYPPFMIALACLHVACVVQQKDARQWFAELSVDMEKILEIIRVILKLYEQWKNFDERKEMATILSKMPKPKPPPNSEGEQGPNGSQNSSYSQS
# B5: CCNC (natural protein, human (endogenous in 293-F), UniProt P24863 1-283, looked up)
# chain: B4 chain
# B6: MED6 (natural protein, human (endogenous in 293-F), UniProt O75586 1-246, looked up)
# chain: MAAVDIRDNLLGISWVDSSWIPILNSGSVLDYFSERSNPFYDRTCNNEVVKMQRLTLEHLNQMVGIEYILLHAQEPILFIIRKQQRQSPAQVIPLADYYIIAGVIYQAPDLGSVINSRVLTAVHGIQSAFDEAMSYCRYHPSKGYWWHFKDHEEQDKVRPKAKRKEEPSSIFQRQRVDALLLDLRQKFPPKFVQLKPGEKPVPVDQTKKEAEPIPETVKPEEKETTKNVQQTVSAKGPPEKRMRLQ
# B7: MED8 (natural protein, human (endogenous in 293-F), UniProt Q96G25 1-268, looked up)
# chain: MQREEKQLEASLDALLSQVADLKNSLGSFICKLENEYGRLTWPSVLDSFALLSGQLNTLNKVLKHEKTPLFRNQVIIPLVLSPDRDEDLMRQTEGRVPVFSHEVVPDHLRTKPDPEVEEQEKQLTTDAARIGADAAQKQIQSLNKMCSNLLEKISKEERESESGGLRPNKQTFNPTDTNALVAAVAFGKGLSNWRPSGSSGPGQAGQPGAGTILAGTSGLQQVQMAGAPSQQQPMLSGVQMAQAGQPGKMPSGIKTNIKSASMHPYQR
# B8: MED21 (natural protein, human (endogenous in 293-F), UniProt Q13503 1-144, looked up)
# chain: MADRLTQLQDAVNSLADQFCNAIGVLQQCGPPASFNNIQTAINKDQPANPTEEYAQLFAALIARTAKDIDVLIDSLPSEESTAALQAASLYKLEEENHEAATCLEDVVYRGDMLLEKIQSALADIAQSQLKTRSGTHSQSLPDS
# B9: MED7 (natural protein, human (endogenous in 293-F), UniProt O43513 1-233, looked up)
# chain: MGEPQQVSALPPPPMQYIKEYTDENIQEGLAPKPPPPIKDSYMMFGNQFQCDDLIIRPLESQGIERLHPMQFDHKKELRKLNMSILINFLDLLDILIRSPGSIKREEKLEDLKLLFVHVHHLINEYRPHQARETLRVMMEVQKRQRLETAERFQKHLERVIEMIQNCLASLPDDLPHSEAGMRVKTEPMDADDSNNCTGQNEHQRENSGHRRDQIIEKDAALCVLIDEMNERP
# B10: Flag-tagged MED13 IDRc (residues 500–1069), expressed in 293-F cells (domain or fragment, human, UniProt Q9UHV7 500-1069, looked up)
# chain: SAPDSQVRFSNIRTNDVAKTPQMHGTEMANSPQPPPLSPHPCDVVDEGVTKTPSTPQSQHFYQMPTPDPLVPSKPMEDRIDSLSQSFPPQYQEAVEPTVYVGTAVNLEEDEANIAWKYYKFPKKKDVEFLPPQLPSDKFKDDPVGPFGQESVTSVTELMVQCKKPLKVSDELVQQYQIKNQCLSAIASDAEQEPKIDPYAFVEGDEEFLFPDKKDRQNSEREAGKKHKVEDGTSSVTVLSHEEDAMSLFSPSIKQDAPRPTSHARPPSTSLIYDSDLAVSYTDLDNLFNSDEDELTPGSKKSANGSDDKASCKESKTGNLDPLSCISTADLHKMYPTPPSLEQHIMGFSPMNMNNKEYGSMDTTPGGTVLEGNSSSIGAQFKIEVDEGFCSPKPSEIKDFSYVYKPENCQILVGCSMFAPLKTLPSQYLPPIKLPEECIYRQSWTVGKLELLSSGPSMPFIKEGDGSNMDQEYGTAYTPQTHTSFGMPPSSAPPSNSGAGILPSPSTPRFPTPRTPRTPRTPRGAGGPASAQGSVKYENSDLYSPASTPSTCRPLNSVEPATVPSIPEAH
# Columns and labels:
# [1] = target: T2, MED13 (human (endogenous in 293-F), UniProt Q9UHV7 1-2174); assay: cross-linking
# [2] = target: MED12 (human (endogenous in 293-F), UniProt Q93074 1-2177); assay: cross-linking
# [3] = target: T2, MED13; assay: cryo-EM structure
# [4] = target: MED12L (human (endogenous in 293-F), UniProt Q86YW9 1-2145); assay: cross-linking
# [5] = target: CDK8-Flag (recombinant CKM subunit) (human, UniProt P49336 1-464); assay: cryo-EM structure
# [6] = target: B10; assay: cryo-EM structure
# [7] = target: MED14 (human (endogenous in 293-F), UniProt O60244 1-1454); assay: cryo-EM structure
# [8] = target: T1, MED17; assay: cryo-EM structure
# Chain of MED12 (Q93074 whole entry): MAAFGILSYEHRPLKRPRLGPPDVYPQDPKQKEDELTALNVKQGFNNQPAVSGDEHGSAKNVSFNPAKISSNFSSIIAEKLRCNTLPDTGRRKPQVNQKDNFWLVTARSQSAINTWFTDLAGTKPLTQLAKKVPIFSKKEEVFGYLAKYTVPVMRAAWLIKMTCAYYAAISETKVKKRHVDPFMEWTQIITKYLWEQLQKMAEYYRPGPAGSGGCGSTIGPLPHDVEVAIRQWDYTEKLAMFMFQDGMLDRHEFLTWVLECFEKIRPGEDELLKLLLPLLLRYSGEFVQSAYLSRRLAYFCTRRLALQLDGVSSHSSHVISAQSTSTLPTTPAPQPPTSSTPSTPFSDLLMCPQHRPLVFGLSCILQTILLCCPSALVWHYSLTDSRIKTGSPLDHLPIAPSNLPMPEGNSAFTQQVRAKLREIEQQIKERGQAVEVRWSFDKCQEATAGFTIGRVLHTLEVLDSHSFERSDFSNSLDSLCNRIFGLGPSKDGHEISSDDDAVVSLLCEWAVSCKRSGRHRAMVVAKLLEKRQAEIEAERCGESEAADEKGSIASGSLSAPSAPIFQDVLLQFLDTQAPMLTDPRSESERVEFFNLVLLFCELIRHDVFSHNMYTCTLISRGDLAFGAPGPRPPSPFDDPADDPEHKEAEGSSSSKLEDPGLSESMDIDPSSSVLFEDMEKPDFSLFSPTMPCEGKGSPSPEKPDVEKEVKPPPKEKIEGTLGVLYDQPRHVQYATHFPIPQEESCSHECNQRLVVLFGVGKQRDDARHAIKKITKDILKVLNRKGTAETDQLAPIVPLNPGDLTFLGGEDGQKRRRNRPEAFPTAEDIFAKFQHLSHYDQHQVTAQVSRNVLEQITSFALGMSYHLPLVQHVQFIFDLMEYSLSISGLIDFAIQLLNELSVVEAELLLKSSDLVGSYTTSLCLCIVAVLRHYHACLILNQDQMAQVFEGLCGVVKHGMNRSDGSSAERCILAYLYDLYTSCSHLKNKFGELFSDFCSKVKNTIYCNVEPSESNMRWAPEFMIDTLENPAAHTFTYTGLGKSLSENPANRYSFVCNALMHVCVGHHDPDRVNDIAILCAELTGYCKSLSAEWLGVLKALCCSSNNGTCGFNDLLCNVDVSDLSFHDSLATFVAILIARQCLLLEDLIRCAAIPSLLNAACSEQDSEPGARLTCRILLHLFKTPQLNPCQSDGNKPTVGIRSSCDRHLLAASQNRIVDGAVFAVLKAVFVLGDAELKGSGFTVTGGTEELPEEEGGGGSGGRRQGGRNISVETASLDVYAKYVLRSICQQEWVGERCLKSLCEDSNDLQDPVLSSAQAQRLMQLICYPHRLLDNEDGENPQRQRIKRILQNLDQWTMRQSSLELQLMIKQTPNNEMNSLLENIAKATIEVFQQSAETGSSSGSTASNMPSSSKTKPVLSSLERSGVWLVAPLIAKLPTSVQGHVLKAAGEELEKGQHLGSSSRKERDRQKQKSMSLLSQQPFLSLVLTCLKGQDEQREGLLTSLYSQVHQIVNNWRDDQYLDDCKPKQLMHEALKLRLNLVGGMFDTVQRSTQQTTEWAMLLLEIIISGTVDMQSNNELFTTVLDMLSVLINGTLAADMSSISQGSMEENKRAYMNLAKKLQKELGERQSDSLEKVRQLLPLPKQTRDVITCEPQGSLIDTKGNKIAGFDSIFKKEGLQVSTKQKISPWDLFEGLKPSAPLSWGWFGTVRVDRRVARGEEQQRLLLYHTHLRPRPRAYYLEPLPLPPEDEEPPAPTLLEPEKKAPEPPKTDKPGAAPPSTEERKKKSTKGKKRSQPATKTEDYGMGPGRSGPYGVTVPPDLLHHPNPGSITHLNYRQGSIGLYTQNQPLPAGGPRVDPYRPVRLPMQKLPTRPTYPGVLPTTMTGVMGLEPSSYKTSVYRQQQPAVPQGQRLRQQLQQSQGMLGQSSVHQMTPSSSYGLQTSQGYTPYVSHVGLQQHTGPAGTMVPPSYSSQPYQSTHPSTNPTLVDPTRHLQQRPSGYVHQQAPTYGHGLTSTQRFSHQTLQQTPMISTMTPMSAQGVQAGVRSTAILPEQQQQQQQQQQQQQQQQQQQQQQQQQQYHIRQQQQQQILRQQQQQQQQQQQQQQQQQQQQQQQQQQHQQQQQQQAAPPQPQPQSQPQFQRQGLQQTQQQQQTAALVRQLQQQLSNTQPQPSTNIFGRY
# T2 sequence (Q9UHV7 whole entry): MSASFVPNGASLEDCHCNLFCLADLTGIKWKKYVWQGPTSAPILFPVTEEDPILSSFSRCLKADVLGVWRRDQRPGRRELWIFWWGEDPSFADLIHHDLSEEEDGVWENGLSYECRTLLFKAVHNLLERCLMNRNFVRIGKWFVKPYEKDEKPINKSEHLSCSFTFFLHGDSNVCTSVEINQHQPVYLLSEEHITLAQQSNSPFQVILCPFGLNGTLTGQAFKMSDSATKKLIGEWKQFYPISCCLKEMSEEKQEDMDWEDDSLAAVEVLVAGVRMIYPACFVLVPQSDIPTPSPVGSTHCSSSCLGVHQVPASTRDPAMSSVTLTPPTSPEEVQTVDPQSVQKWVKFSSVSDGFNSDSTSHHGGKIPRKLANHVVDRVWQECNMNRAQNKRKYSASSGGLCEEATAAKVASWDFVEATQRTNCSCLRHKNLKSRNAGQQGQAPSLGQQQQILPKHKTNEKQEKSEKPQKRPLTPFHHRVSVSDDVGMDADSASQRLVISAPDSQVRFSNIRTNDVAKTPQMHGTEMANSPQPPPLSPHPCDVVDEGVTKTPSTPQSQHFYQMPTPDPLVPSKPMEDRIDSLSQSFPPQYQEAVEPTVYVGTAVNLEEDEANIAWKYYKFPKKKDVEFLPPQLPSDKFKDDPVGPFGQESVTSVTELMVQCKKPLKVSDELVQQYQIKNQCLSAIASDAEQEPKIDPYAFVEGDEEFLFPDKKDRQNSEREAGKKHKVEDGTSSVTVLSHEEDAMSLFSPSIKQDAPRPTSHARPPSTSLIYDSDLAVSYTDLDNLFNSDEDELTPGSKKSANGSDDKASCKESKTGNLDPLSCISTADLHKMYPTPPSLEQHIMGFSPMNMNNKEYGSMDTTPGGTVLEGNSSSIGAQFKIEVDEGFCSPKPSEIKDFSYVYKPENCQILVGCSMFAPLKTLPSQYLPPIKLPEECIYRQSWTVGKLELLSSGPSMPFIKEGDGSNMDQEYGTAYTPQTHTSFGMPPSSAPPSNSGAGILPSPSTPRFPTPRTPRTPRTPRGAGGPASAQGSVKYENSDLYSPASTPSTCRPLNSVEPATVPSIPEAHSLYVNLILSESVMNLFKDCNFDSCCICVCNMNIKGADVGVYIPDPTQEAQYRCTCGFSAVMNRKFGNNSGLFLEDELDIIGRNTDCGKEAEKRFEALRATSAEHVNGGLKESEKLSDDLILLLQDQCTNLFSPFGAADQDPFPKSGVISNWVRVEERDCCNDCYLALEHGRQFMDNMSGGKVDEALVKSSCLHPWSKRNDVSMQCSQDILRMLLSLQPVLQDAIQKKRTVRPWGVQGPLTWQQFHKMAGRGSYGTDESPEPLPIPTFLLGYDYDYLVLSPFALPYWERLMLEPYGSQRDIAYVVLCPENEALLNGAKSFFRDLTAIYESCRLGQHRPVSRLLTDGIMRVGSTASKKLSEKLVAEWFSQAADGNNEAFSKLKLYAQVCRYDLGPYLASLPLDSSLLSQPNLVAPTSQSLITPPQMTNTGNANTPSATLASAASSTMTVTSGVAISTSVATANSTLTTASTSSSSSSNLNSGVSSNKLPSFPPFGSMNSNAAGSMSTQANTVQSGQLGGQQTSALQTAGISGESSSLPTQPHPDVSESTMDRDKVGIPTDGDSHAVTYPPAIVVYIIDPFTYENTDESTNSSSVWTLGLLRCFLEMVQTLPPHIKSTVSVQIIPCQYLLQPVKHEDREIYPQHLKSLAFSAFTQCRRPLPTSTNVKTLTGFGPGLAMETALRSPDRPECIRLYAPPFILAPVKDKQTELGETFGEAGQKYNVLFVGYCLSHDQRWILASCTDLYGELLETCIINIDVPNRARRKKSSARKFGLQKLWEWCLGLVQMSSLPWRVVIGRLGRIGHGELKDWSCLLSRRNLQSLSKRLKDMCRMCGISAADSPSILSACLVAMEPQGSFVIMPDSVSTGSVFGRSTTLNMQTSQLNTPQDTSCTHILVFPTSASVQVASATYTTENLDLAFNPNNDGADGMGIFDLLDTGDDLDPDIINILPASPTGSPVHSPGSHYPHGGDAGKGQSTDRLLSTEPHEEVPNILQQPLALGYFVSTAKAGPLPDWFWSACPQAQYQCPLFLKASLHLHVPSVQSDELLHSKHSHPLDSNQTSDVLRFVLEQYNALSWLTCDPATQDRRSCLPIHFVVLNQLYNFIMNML
# Chain of CDK8-Flag (recombinant CKM subunit) (P49336 whole entry): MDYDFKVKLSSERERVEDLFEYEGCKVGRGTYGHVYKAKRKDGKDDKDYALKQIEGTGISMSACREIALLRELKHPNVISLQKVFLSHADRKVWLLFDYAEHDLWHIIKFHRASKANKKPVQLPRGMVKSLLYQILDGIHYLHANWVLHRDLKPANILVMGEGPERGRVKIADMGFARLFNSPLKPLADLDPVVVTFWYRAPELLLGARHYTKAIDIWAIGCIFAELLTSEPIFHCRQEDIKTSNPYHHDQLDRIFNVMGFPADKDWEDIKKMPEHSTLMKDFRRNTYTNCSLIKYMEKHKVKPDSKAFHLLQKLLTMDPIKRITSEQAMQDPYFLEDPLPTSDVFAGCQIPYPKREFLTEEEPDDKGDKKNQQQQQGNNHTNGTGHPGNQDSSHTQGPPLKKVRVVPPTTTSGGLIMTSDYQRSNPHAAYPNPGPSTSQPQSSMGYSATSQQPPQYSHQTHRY
binding result [2],binding result [6],Binder,other results
,,B1,binding result [1]: binds
binds,,B2,binding result [3]: binds
binds,,B3,binding result [1]: binds; binding result [4]: binds
,,B4,binding result [5]: binds
binds,,B5,
,binds,B6,
,binds,B7,
,binds,B8,
,binds,B9,
,,B10,binding result [7]: binds; binding result [8]: binds
